Experimental data as given in patent publication US20240218057A1 (ROCKEFELLER UNIVERSITY, published 2024).

target: T1, SARS-COV-2 RBD (SARS-COV-2, UniProt P0DTC2 319-539); experiment: ELISA, RBD coated
T1 construct: also called WT RBD

Binder | EC50
C867 (antibody, V domains shown, IgG; V domains only) VH: QVQLQESGPGLVKSSETLSLTCTVSSGSVRSGGYYWSWIRHHPGKGLEWIGYIFYTGITYYNPSLKSRVIVSVDPSKNQFSLNLTSVTAADTAVYYCASTPYTNGGAFHIWGQGTMVTVSS VL: QSALTQPPSASGSPGQSVTISCTGTSSDVGGHNYVSWYQQFPGKAPKLIIYDVNKRPSGVPDRFSGSKSANTASLTVSGLQAEDEADYHCSSYAGSNNWVFGGGTKLTVL | 2.71 ng/mL
C880 (antibody, V domains shown, IgG; V domains only) VH: QVQLQQWGAGLLKPSETLSLTCAVYGGSFSDYYWSWIRQPPGKGLEWIGENNHSGKTNYNPSLENRVTISVDTSKNQFSLKLTSVTAADTAVYYCARESGSYGTFDYWGQGTLVTVSS VL: EIVLTQSPGTLSLSPGERATLSCRASQSVSSAYLAWYQQKPGQAPRLLIYGASSRATGIPDRFSGSGSGTDFTLTISRLEPEDFAVYFCQQYAYTIWTFGQGTKVEIK | 2.2 ng/mL
C894 (antibody, V domains shown, IgG; V domains only) VH: EVQLVQSGAEVKKPGESLRISCKGSGYSFTGYWISWVRQMPGKGLEWMGRIDPSDSYTNYSPSFEGHVTFSADTALSTAYLQWSSLQASDTAIYFCGRIAPPGRGSYYPTQNYMDVWGKGTTVTVSS VL: EIVLTQSPGTLSLSPGERATLSCTADQSVPNSYLAWYQHKPGQAPRLLIYGASSRATGIPDRFSGSGSGIDFTLTISRLEPEDFAVYYCQQYGSLLLTFGGGTKVEIK | 16.8 ng/mL
C866 (antibody, V domains shown, IgG; V domains only) VH: EVQLVESGGGLVQPGRSLRLSCVASGFEFEDYGMHWVRQVPGKGLEWVSGISWNSASVGYADSVRGRFTISRDNAKNSLYLQMNSLRAEDTALYYCGKQINEWSHFLDYWGQGTLVTVSS VL: DIQLTQSPSSVSASVGDRVTITCRASQGISNWLAWYQKKPGKAPKLLIYATSSLQSGVPSRFSGSGSETDFTLTIRSLQPEDFATYYCQQANSYPLTFGQGTKLEIK | 2 ng/mL
C875 (antibody, V domains shown, IgG; V domains only) VH: QVQLVQSGAEVKQPGASVKISCKASGYIFTTYFMHWVRQAPGQGLEWLGIIDPTISGASLAQKFQGRVTMTSDTSTSTVYMEMRSLRSDDTALYFCARASTSTSSWSEALSLGSWGQGTLVTVSS VL: QSVLTQPPSVSGAPGQGVSISCTGSSSNVGAGYGVHWYQQLPGTTPKLLIYDNNSRPAGVPDRFSGSKSGTSASLAIAGLQPEDEADYYCQSWDNGLSGSGVVFGGGTKVTVL | 3.5 ng/mL
C871 (antibody, V domains shown, IgG; V domains only) VH: EVQLVESGGGLIQTGGSLKLSCAASGFIVTNNYMSWVRQAPGKGLEWVSVIYSGGTTYYADSVKGRFTISRDISKNTLYLQMNSLKAEDTAVYYCAREGDVEGISDSWSGYSRDRYYFDHWGQGTLVTVSS VL: QSALTQPASVSGSPGQSITISCTGTSSDVGGYNYVSWYQQHPGKAPKLMIYDVSNRPPTISNRFSGSKSGNTASLIISGLQPEDEADYYCSSFTSNNTRVFGTGTKVTVL | 1.52 ng/mL
C877 (antibody, V domains shown, IgG; V domains only) VH: EVQLVESGGGLIPPGGSLRLSCAASGIIVSRNYMSWVRQTPGKGLEWVSVMYAGGTKEYADSVKGRFIISRDDSNNTLYLQMNSLRAEDTAVYYCARDLIVLGVDVWGQGTTVTVSS VL: DIQLTQSPSFLSASVGDRVTITCRASQGISNYLAWYQQKPGKAPKLLIYAASTLQSGVPSRFSGSGSGTEFTLTISSLQPEDFATYYCQLLNSYPMCSFGQGTKLEIK | 2.53 ng/mL
C872 (antibody, V domains shown, IgG; V domains only) VH: EVQLVESGGGLIQPGGSLRLSCAASGFIVSNNYISWVRQAPGKGLEWVSVIYSGGTTYYADSVKGRFSISRDTSKNTVYLQINNLRAEDTAVYYCAREGDVDGNYGFWSGYSRDRYYFDYWGQGTLVTVSS VL: QSALTQPASVSGSPGQSITISCTGTSSDVGAYNYVAWYQQHPGKAPKLMVYDVSKRPSGVSNRFSGSKSGNTASLTISGLQTEDEGDYYCCSYTTNTTRVFGTGTMLTVL | 2.19 ng/mL
C869 (antibody, V domains shown, IgG; V domains only) VH: QVQLVESGGGVVQPGTSLRLSCAASGFTFSSFGMNWVRQAPGKGLEWVAVIFFDGSKTYYADSVKGRFTISRDNSKNTLYLQMNSLRTEDTAVYYCAKGQLRLGEFDDYWGQGTLVTVSS VL: DIQMTQSPSSLSASVGDRVTITCRASQDIRDDLNWYQHKPGKAPKLLIYTASSLQSGVPSRFSGSGSGTDFTLTISRLQPEDFASYYCLQDHNYPLTFGQGTKLEIK | 3.14 ng/mL
C868 (antibody, V domains shown, IgG; V domains only) VH: QVQLQESGPRLVKPSETLSLTCIVSGGSVSSNNFYWSWIRQPPGKRLEWIGYFYNSGSSKYNPSLKSRVTISGDTSKNQFSLKLSSVTAADTAVYYCARETFFYDRTGHYKSDGFDVWGQGTMVTVSS VL: DIQMTQSPSTLSASVGDRVTISCRASQNISSWLAWYQQEAGKAPKLLIYKASSLESGVPSRFSGSGSGTEFTLTISSLQPGDFATYYCQQYNIYSYTFGQGTKLEIK | 3.39 ng/mL
C885 (antibody, V domains shown, IgG; V domains only) VH: QVQLQESGPGLVKPSQTLSLTCAVSGDSIRSGGYYWSWVRQHPGRGLEWIGYIYFSGTTYYNPSLKSRVTISVDTSEKQFSLKLTSVTDADTAVYFCARVKGWLRGYFDYWGQGALVTVSS VL: NFMLTQSHSVSESPGKTVTISCTGSSGNIVNNYVQWYQQRPGSAPIIVIYEDTQRPSGVPDRFSGSIDTSSNSASLTISGLKTEDEADYYCQSYDSGSHVVFGGGTKLTV | 7.45 ng/mL
C879 (antibody, V domains shown, IgG; V domains only) VH: QVQLQESGPGLVKPSQTLSLTCGVSGDSISSGGHFWSWVRQHPGTGLEWIAYSPFSGTTYYNPSLKSRVTLSVDTSKNQFFLSLTSVTDADTAVYFCARVKGWLRGYFDHWGQGVLVTVSS VL: NFMLTQPHSVSESPGKTVTISCTASSGNIVNNYVQWYQQRPGSAPIIVIYEDAQRPSGVPDRFSGSIDTSSNSASLTISGLKTEDEADYYCQSYEIDSHVVFGGGTRLTV | 4.25 ng/mL
C862 (antibody, V domains shown, IgG; V domains only) VH: QVQLQESGPGLVKPSQTLSLTCTVSGASISSSEHYWSWIRQPPGKGLEWIGYISYSGGTYQNPSLQSRMTLSMDASKNQFSLKLSSVTAADTAVYFCARLNTMIVMINGVFDVWGQGTMVTVSS VL: DIQMTQSPSSLSAFVGDRVTITCQASQDINKYVNWYQQKPGKAPKLLIYDASNLQTGVPSRFSGSGSGTHFTFTISSLQPEDFATYYCQEYDNLFSISFGQGTRLEIK | 2.14 ng/mL
C870 (antibody, V domains shown, IgG; V domains only) VH: EVQLVESGGGLVQPGKSLRLSCAGSGFAFSSYHMNWVRQAPGKGLEWVAYISSGSSTIHYADSVKGRFTISRDNAKNSFYLQMNSLRAEDTALYYCARAIVGTKGYMDVWGKGTTVTVSS VL: QSALTQPASVSGSPGQSVTISCTGTRSDVGSYDLVSWYQLHADKAPKLIIYEVTSRPSGISTRFSGSKSGNTASLTISGLQAEDEADYYCCSYAGTTWLFGGGTRLTVL | 2.17 ng/mL
C873 (antibody, V domains shown, IgG; V domains only) VH: QVQLVQSGPEVKKPGASVKVSCKASGYIFTDYSIHWVRQAPGQGLEWMGWINPNSGGGNSAQIFKGRATMARDTSITTVYMDLSGLRSDDTAVYYCARGPLFHKVVYESSSGFHDGLDFWGQGTMVTVSS VL: QSALTQPASVSGSPGQSVTISCTGTSSDVGGYNFLSWYQQHPGKAPKLLLYEVINRPSGVSDRFSGSKSGNTASLTISGLQAEDEADYYCNSYTSNFTWVFGGGTHLTV | 4.05 ng/mL
C884 (antibody, V domains shown, IgG; V domains only) VH: QVQLQQWGAGLLKPSETLSLTCVVYGGSFSAYYWSWIRQPPGKGLEWIGEINHSGSTNYKSSLQSRVTISVDTSKNQFSLKLSSVTAADTAVYYCARETGTYGTFDHWGQGTLVTVSS VL: EIVLTQSPGTLSLSPGERATLSCRASQSVSSTYLAWYQQKPGQAPRLLIYGASSRATGIPDRFSGSGSGTDFTLTISRLEPEDFAVYYCQQYAFSVWTFGQGTKVEI | 4.22 ng/mL
